Experiments:
[1] = molecular target: Mnemiopsis collagen IV NC1 domains (collagenase-solubilised NC1 hexamer) (Mnemiopsis (endogenous in whole ctenophore tissue)); assay: SEC; collagenase digest of whole ctenophore tissue on Superdex 200 10/300 GL; elution compared with native, purified placental basement membrane NC1 hexamer run successively; fractions 12 mL to 16.4 mL blotted with NC1-specific monoclonal antibody (JK-2)
[2] = molecular target: Mnemiopsis collagen IV NC1 domains (collagenase-solubilised NC1 hexamer) (Mnemiopsis (endogenous in whole ctenophore tissue)); assay: SDS-PAGE under reducing and non-reducing conditions with Western blot; NC1 hexamer fractions from gel filtration; 12% gels, 5% beta-mercaptoethanol or none; for Beroe reduction in TBS with various concentrations of DTT (30 min, 37°C), alkylation with iodoacetamide, non-reducing SDS-PAGE; blot with JK-2
[3] = molecular target: Beroe collagen IV NC1 domains (collagenase-solubilised NC1 hexamer) (Beroe (endogenous in whole ctenophore tissue)); assay: SEC; collagenase digest of whole ctenophore tissue on Superdex 200 10/300 GL; elution compared with native, purified placental basement membrane NC1 hexamer run successively; fractions 12 mL to 16.4 mL blotted with NC1-specific monoclonal antibody (JK-2)
[4] = molecular target: Beroe collagen IV NC1 domains (collagenase-solubilised NC1 hexamer) (Beroe (endogenous in whole ctenophore tissue)); assay: SDS-PAGE under reducing and non-reducing conditions with Western blot; NC1 hexamer fractions from gel filtration; 12% gels, 5% beta-mercaptoethanol or none; for Beroe reduction in TBS with various concentrations of DTT (30 min, 37°C), alkylation with iodoacetamide, non-reducing SDS-PAGE; blot with JK-2
[5] = molecular target: Pleurobrachia collagen IV NC1 domains (collagenase-solubilised NC1 hexamer) (Pleurobrachia (endogenous in whole ctenophore tissue)); assay: SEC; collagenase digest of whole ctenophore tissue on Superdex 200 10/300 GL; elution compared with native, purified placental basement membrane NC1 hexamer run successively; fractions 12 mL to 16.4 mL blotted with NC1-specific monoclonal antibody (JK-2)
[6] = molecular target: Pleurobrachia collagen IV NC1 domains (collagenase-solubilised NC1 hexamer) (Pleurobrachia (endogenous in whole ctenophore tissue)); assay: SDS-PAGE under reducing and non-reducing conditions with Western blot; NC1 hexamer fractions from gel filtration; 12% gels, 5% beta-mercaptoethanol or none; for Beroe reduction in TBS with various concentrations of DTT (30 min, 37°C), alkylation with iodoacetamide, non-reducing SDS-PAGE; blot with JK-2

Substance: Mnemiopsis collagen IV NC1 domains (collagenase-solubilised NC1 hexamer)
- stoichiometry N [1]: 6
- stoichiometry N [2]: 2

Substance: Beroe collagen IV NC1 domains (collagenase-solubilised NC1 hexamer)
- stoichiometry N [3]: 6
- stoichiometry N [4]: 2

Substance: Pleurobrachia collagen IV NC1 domains (collagenase-solubilised NC1 hexamer)
- stoichiometry N [5]: 6
- stoichiometry N [6]: 2
